{"source": "patent CN117327177A", "about": "(dated 2024)", "molecules": {"B1": {"name": "Anti-APN 6C2mut1 (antibody, V domains shown)", "VH": "EVQLQQSGPELVKPGASVKMSCKASGYSFTGYFINWVKQSHGKSLEWIGRINPYNGDTFYNEKFKGKATFTADISSSAAHMELLSLTSEDSAVYYCGRGGGLQRPYFDYWGQGTTLTVSP", "VL": "DIQMTQSSSYLSVSLGGRVTITCKASDHVNNWLAWYQQKPGNAPRLLISGATNLETGVPSRFSGSGSGKDYTLTITSVQTEDVATYYCQQYWISALTFGAGTKLELN"}}, "key": {"[1]": {"molecular_target": "脂联素抗原(购自HYTEST，8AN7) (UniProt Q15848)", "assay": "BLI, antibody captured on AMC sensor, adiponectin antigen in gradient dilution in PBST"}, "[2]": {"molecular_target": "脂联素抗原(购自HYTEST，8AN7) (UniProt Q15848)", "assay": "indirect ELISA, adiponectin coated at 0.5 ug/ml, antibody at 3.13 ng/ml"}, "[3]": {"molecular_target": "脂联素抗原(购自HYTEST，8AN7) (UniProt Q15848)", "assay": "indirect ELISA, adiponectin coated at 0.5 ug/ml, antibody at 1.56 ng/ml"}, "[4]": {"molecular_target": "脂联素抗原(购自HYTEST，8AN7) (UniProt Q15848)", "assay": "indirect ELISA, adiponectin coated at 0.5 ug/ml, antibody at 0.78 ng/ml"}, "[5]": {"molecular_target": "脂联素抗原(购自HYTEST，8AN7) (UniProt Q15848)", "assay": "indirect ELISA, adiponectin coated at 0.5 ug/ml, antibody at 0.39 ng/ml"}, "[6]": {"molecular_target": "脂联素抗原(购自HYTEST，8AN7) (UniProt Q15848)", "assay": "indirect ELISA, adiponectin coated at 0.5 ug/ml, antibody at 0 ng/ml (blank)"}, "[7]": {"molecular_target": "脂联素抗原(购自HYTEST，8AN7) (UniProt Q15848)", "assay": "indirect ELISA, adiponectin coated at 0.5 ug/ml, antibody at 6.25 ng/ml"}, "[8]": {"molecular_target": "T1, Adiponectin (human, UniProt Q15848)", "T1 chain": "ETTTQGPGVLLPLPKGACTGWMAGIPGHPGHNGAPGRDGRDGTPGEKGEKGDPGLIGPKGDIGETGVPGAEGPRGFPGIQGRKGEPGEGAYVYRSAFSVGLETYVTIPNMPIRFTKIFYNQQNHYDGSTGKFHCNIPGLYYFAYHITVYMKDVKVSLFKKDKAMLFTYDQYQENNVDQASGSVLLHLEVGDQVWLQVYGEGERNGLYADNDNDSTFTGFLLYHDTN", "assay": "BLI"}}}
{"molecule": "对照 (antibody)", "values": [{"measurement": "Kd", "setting": "[1]", "value": 0.0871, "unit": "µM"}, {"measurement": "koff", "setting": "[1]", "value": 0.00923, "unit": "s⁻¹"}, {"measurement": "kon", "setting": "[1]", "value": 106000, "unit": "M⁻¹ s⁻¹"}, {"measurement": "OD450 (ref 630 nm)", "setting": "[2]", "value": 1.43, "unit": "OD"}, {"measurement": "OD450 (ref 630 nm)", "setting": "[3]", "value": 0.802, "unit": "OD"}, {"measurement": "OD450 (ref 630 nm)", "setting": "[4]", "value": 0.451, "unit": "OD"}, {"measurement": "OD450 (ref 630 nm)", "setting": "[5]", "value": 0.261, "unit": "OD"}, {"measurement": "OD450 (ref 630 nm)", "setting": "[6]", "value": 0.055, "unit": "OD"}, {"measurement": "OD450 (ref 630 nm)", "setting": "[7]", "value": 1.8, "unit": "OD"}]}
{"molecule": "B1", "values": [{"measurement": "koff", "setting": "[1]", "value": 0.00209, "unit": "s⁻¹"}, {"measurement": "kon", "setting": "[1]", "value": "5.58e+06", "unit": "M⁻¹ s⁻¹"}, {"measurement": "OD450 (ref 630 nm)", "setting": "[2]", "value": 2.26, "unit": "OD"}, {"measurement": "OD450 (ref 630 nm)", "setting": "[3]", "value": 2.06, "unit": "OD"}, {"measurement": "Kd", "setting": "[8]", "value": 0.000374, "unit": "µM"}, {"measurement": "OD450 (ref 630 nm)", "setting": "[4]", "value": 1.79, "unit": "OD"}, {"measurement": "OD450 (ref 630 nm)", "setting": "[5]", "value": 1.02, "unit": "OD"}, {"measurement": "OD450 (ref 630 nm)", "setting": "[6]", "value": 0.074, "unit": "OD"}, {"measurement": "OD450 (ref 630 nm)", "setting": "[7]", "value": 2.33, "unit": "OD"}]}
